# Results: patent US20120090043A1, “TARGETS FOR RETROVIRUS ASSOCIATED DISEASES” (priority 2009, published 2012)
# B1: C1orf94: human host interactor protein, Gene ID 84970, expressed from transfected ORF vector (protein)
# chain: MRGGGGCVLALGGQRGFQKERRRMASGNGLPSSSALVAKGPCALGPFPRYIWIHQDTPQDSLDKTCHEIWKRVQGLPEASQPWTSMEQLSVPVVGTLRGNELSFQEEALELSSGKDEISLLVEQEFLSLTKEHSILVEESSGELEVPGSSPEGTRELAPCILAPPLVAGSNERPRASIIVGDKLLKQKVAMPVISSRQDCDSATSTVTDILCAAEVKSSKGTEDRGRILGDSNLQVSKLLSQFPLKSTETSKVPDNKNVLDKTRVTKDFLQDNLFSGPGPKEPTGLSPFLLLPPRPPPARPDKLPELPAQKRQLPVFAKICSKPKADPAVERHHLMEWSPGTKEPKKGQGSLFLSQWPQSQKDACGEEGCCDAVGTASLTLPPKKPTCPAEKNLLYEFLGATKNPSGQPRLRNKVEVDGPELKFNAPVTVADKNNPKYTGNVFTPHFPTAMTSATLNQPLWLNLNYPPPPVFTNHSTFLQYQGLYPQQAARMPYQQALHPQLGCYSQQVMPYNPQQMGQQIFRSSYTPLLSYIPFVQPNYPYPQRTPPKMSANPRDPPLMAGDGPQYLFPQGYGFGSTSGGPLMHSPYFSSSGNGINF
# B2: CCDC24: human host interactor protein, Gene ID 149473, expressed from transfected ORF vector (protein)
# chain: MLRHSPSLWELVEEHVPLRERREVKRILGEAAVDLSLELRAEVAMLRALLQEARSSQAPSSRPISDPSSLLAPPPLLKDLLRQELRQLLQGLRHKAICEGRDQAQAWVQYSPRVLHFALEEPRCDLPEQEIFQMRGGGPSSGHRDLSIIKDQLNVSNIDQVARHLRGLLEEECHTLEREILILQRCLEEEYLRPCHPSEAALEPTLAELKEQKKAMEQELQASVGPSCVSPNHRQRPLGSSTQGLRPPLPLCGVAPLQCCLPAPPLEPYLRPRGQSATHRWGRQLQCSPREGPASTPMSSAAPQAPA
# B3: DAZAP2: human host interactor protein, Gene ID 9802, expressed from transfected ORF vector (protein)
# chain: MNSKGQYPTQPTYPVQPPGNPVYPQTLHLPQAPPYTDAPPAYSELYRPSFVHPGAATVPTMSAAFPGASLYLPMAQSVAVGPLGSTIPMAYYPVGPIYPPGSTVLVEGGYDAGARFGAGATAGNIPPPPPGCPPNAAQLAVMQGANVLVTQRKGNFFMGGSDGGYTIW
# B4: DGCR6L: human host interactor protein, Gene ID 85359, expressed from transfected ORF vector (protein)
# chain: MERYAAALEEVADGARQQERHYQLLSALQSLVKELPSSFQQRLSYTTLSDLALALLDGTVFEIVQGLLEIQHLTEKSLYNQRLRLQNEHRVLRQALRQKHQEAQQACRPHNLPVVQAAQQRELEAVEHRIREEQRAMDQKIILELDRKVADQQSTLEKAGVAGFYVTTNPQELMLQMNLLELIRKLQQRGCRAGNAALGLGGPWQSPAAQCDQKGSPVPP
# B5: DHRS10: human host interactor protein, Gene ID 51171, expressed from transfected ORF vector (protein)
# chain: MATGTRYAGKVVVVTGGGRGIGAGIVRAFVNSGARVVICDKDESGGRALEQELPGAVFILCDVTQEDDVKTLVSETIRRFGRLDCVVNNAGHHPPPQRPEETSAQGFRQLLELNLLGTYTLTKLALPYLRKSQGNVINISSLVGAIGQAQAVPYVATKGAVTAMTKALALDESPYGVRVNCISPGNIWTPLWEELAALMPDPRATIREGMLAQPLGRMGQPAEVGAAAVFLASEANFCTGIELLVTGGAELGYGCKASRSTPVDAPDIPS
# B6: DIPA: human host interactor protein, Gene ID 11007, expressed from transfected ORF vector (protein)
# chain: MEAEAGGLEELTDEEMAALGKEELVRRLRREEAARLAALVQRGRLMQEVNRQLQGHLGEIRELKQLNRRLQAENRELRDLCCFLDSERQRGRRAARQWQLFGTQASRAVREDLGGCWQKLAELEGRQEELLRENLALKELCLALGEEWGPRGGPSGAGGSGAGPAPELALPPCGPRDLGDGSSSTGSVGSPDQLPLACSPDD
# B7: FATE1: human host interactor protein, Gene ID 89885, expressed from transfected ORF vector (protein)
# chain: MAGGPPNTKAEMEMSLAEELNHGRQGENQEHLVIAEMMELGSRSRGASQKKQKLEQKAAGSASAKRVWNMTATRPKKMGSQLPKPRMLRESGHGDAHLQEYAGNFQGIRFHYDRNPGTDAVAQTSLEEFNVLEMEVMRRQLYAVNRRLRALEEQGATWRHRETLIIAVLVSASIANLWLWMNQ
# B8: FLJ10726: human host interactor protein, Gene ID 55216, expressed from transfected ORF vector (protein)
# chain: MSRIPLGKVLLRNVIRHTDAHNKIQEESDMWKIRELEKQMEDAYRGTKRKMLPSSSSRMRSDGFDEESQRYYWRPKNEISGTLEDDFLKAKSWNKKFYDYEANMPDRWGHSGYKELYPEEFETDSDQQDITNGKKTSPQVKSSTHESRKHKKSKKSHKKKQKKRSHKKQKKSKKEATDITADSSSEFSEETGASGTRKGKQPHKRKKKSRKKSLKKPALFLEAESNTSHSDDSASSSSEESEERDTKKTKRKKREKKAHTSVANNEIQERTNKRTNWKVATDERSAESSEDD
# B9: FLJ22471: human host interactor protein, Gene ID 80212, expressed from transfected ORF vector (protein)
# chain: MTSPHFSSYDEGPLDVSMAATNLENQLHSAQKNLLFLQREHASTLKGLHSEIRRLQQHCTDLTYELTVKSSEQTGDGTSKSSELKKRCEELEAQLKVKENENAELLKELEQKNAMITVLENTIKEREKKYLEELKAKSHKLTLLSSELEQRASTIAYLTSQLHAAKKKLMSSSGTSDASPSGSPVLASYKPAPPKDKLPETPRRRMKKSLSAPLHPEFEEVYRFGAESRKLLLREPVDAMPDPTPFLLARESAEVHLIKERPLVIPPIASDRSGEQHSPAREKPHKAHVGVAHRIHHATPPQAQPEVKTLAVDQVNGGKVVRKHSGTDRTV
# B10: HSFY1: human host interactor protein, Gene ID 86614, expressed from transfected ORF vector (protein)
# chain: MAHVSSETQDVSPKDELTASEASTRSPLCEHTFPGDSDLRSMIEEHAFQVLSQGSLLESPSYTVCVSEPDKDDDFLSLNFPRKLWKIVESDQFKSISWDENGTCIVINEELFKKEILETKAPYRIFQTDAIKSFVRQLNLYGFSKIQQNFQRSAFLATFLSEEKESSVLSKLKFYYNPNFKRGYPQLLVRVKRRIGVKNASPISTLFNEDFNKKHFRAGANMENHNSALAAEASEESLFSASKNLNMPLTRESSVRQIIANSSVPIRSGFPPPSPSTSVGPSEQIATDQHAILNQLTTIHMHSHSTYMQARGHIVNFITTTTSQYHIISPLQNGYFGLTVEPSAVPTRYPLVSVNEAPYRNMLPAGNPWLQMPTIADRSAAPHSRLALQPSPLDKYHPNYN
# Tested on: HTLV-1 LTR promoter transactivation by HTLV-1 Tax
# Experiment: Transactivation assay, HTLV-1 LTR luciferase reporter with HTLV-1 Tax
# Type: cell-based
# Settings: HEK293 cells co-transfected with pHTLV1LTR-Luc, HTLV-1 Tax and the human ORF; relative luciferase activity 24 h post-transfection; positive if >=2 or <=0.5 and p<0.05
# From the text: Twenty-four hours post-transfection, cells were washed three times with PBS, lysed and luciferase activities determined from two independent transfection experiments in triplicate. We computed a paired t-test to assess the difference of the means between samples with and without the human interactor. For a trial to be considered positive, the relative luciferase activities has to be >=2 or <=0.5, and the p-value of the t-test<0.05.
# Expression vectors encoding human ORFs and HIV-1 Tat or HTLV-1 Tax proteins were tested in a transactivation reporter assay against reporter plasmids harboring HIV-1 or HTLV-1 viral promoter sequences cloned upstream of the luciferase reporter gene. […] Wherever not expressly specified, constructs used herein were generally made by sub-cloning entry clones from the ORFeome V3.1 into suitable destination vectors.
row,Molecule,HTLV_LTR transactiv.
1,B1,0.41 fold change
2,B2,2.88 fold change
3,B3,3.31 fold change
4,B4,0.24 fold change
5,B5,0.41 fold change
6,B6,0.28 fold change
7,B7,0.49 fold change
8,B8,0.19 fold change
9,B9,2.25 fold change
10,B10,0.43 fold change
